Source: patent US20260062488A1

B1: Ab-Abri (antibody, INN chains, looked up, V domains shown)
VH: QVQLVQSGAEVKKPGASVKVSCKVSGYTLSDLSIHWVRQAPGKGLEWMGGFDPQDGETIYAQKFQGRVTMTEDTSTDTAYMELSSLKSEDTAVYYCATGSSSSWFDPWGQGTLVTVSS
VL: DIQMTQSPSSVSASVGDRVTITCRASQGISSWLAWYQQKPGKAPKLLIYGASNLESGVPSRFSGSGSGTDFTLTISSLQPEDFANYYCQQANSFPWTFGQGTKVEIK
modifications: IgG2 Alexa488 conjugate
B2: Ab-Etro (antibody, INN chains, looked up, V domains shown)
VH: EVQLVESGGGLVQPGGSLRLSCAASGFFITNNYWGWVRQAPGKGLEWVGYISYSGSTSYNPSLKSRFTISRDTSKNTFYLQMNSLRAEDTAVYYCARTGSSGYFDFWGQGTLVTVSS
VL: DIQMTQSPSSLSASVGDRVTITCRASESVDDLLHWYQQKPGKAPKLLIKYASQSISGVPSRFSGSGSGTDFTLTISSLQPEDFATYYCQQGNSLPNTFGQGTKVEIK
modifications: IgG1 Alexa488 conjugate
B3: Ab-Nata (antibody, INN chains, looked up, V domains shown)
VH: QVQLVQSGAEVKKPGASVKVSCKASGFNIKDTYIHWVRQAPGQRLEWMGRIDPANGYTKYDPKFQGRVTITADTSASTAYMELSSLRSEDTAVYYCAREGYYGNYGVYAMDYWGQGTLVTVSS
VL: DIQMTQSPSSLSASVGDRVTITCKTSQDINKYMAWYQQTPGKAPRLLIHYTSALQPGIPSRFSGSGSGRDYTFTISSLQPEDIATYYCLQYDNLWTFGQGTKVEIKR

Key:
[1] = target: human αEβ7 integrin (human) (UniProt P38570); assay: FACS, 1 µg/ml, BaF3-hαEβ7 cells
[2] = target: mouse α4β7 integrin (mouse) (UniProt Q00651); assay: FACS, 1 µg/ml, CHOK1-mα4β7 cells
Sequence of mouse α4β7 integrin (mouse) (Q00651 41-1039, chain 1 of 2): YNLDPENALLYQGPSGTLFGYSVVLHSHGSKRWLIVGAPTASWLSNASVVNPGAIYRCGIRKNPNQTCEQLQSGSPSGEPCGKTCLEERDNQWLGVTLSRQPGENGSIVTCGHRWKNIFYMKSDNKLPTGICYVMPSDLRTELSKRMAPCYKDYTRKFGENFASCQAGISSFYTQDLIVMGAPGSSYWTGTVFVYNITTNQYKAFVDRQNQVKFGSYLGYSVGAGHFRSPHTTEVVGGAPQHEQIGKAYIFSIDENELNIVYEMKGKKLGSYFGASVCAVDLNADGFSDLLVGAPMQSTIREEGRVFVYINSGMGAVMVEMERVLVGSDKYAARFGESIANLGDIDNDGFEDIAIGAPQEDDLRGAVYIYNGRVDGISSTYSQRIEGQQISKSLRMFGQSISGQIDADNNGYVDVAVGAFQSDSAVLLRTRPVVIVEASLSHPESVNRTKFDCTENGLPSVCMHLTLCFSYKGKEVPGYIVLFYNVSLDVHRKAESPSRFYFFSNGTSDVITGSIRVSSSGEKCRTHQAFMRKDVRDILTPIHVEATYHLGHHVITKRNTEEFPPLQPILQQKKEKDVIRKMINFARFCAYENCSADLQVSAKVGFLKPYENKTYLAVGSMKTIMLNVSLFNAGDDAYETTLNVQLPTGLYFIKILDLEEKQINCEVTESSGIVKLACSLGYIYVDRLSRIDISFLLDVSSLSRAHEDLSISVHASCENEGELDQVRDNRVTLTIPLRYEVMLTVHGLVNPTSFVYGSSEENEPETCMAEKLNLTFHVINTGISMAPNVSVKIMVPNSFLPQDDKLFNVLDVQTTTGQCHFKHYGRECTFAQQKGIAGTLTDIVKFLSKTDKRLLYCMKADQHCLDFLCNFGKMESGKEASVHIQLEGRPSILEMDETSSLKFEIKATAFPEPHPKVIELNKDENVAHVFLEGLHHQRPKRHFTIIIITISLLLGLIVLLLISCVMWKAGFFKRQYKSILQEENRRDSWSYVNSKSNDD
Sequence of mouse α4β7 integrin (mouse) (P26011 20-806, chain 2 of 2, further chain): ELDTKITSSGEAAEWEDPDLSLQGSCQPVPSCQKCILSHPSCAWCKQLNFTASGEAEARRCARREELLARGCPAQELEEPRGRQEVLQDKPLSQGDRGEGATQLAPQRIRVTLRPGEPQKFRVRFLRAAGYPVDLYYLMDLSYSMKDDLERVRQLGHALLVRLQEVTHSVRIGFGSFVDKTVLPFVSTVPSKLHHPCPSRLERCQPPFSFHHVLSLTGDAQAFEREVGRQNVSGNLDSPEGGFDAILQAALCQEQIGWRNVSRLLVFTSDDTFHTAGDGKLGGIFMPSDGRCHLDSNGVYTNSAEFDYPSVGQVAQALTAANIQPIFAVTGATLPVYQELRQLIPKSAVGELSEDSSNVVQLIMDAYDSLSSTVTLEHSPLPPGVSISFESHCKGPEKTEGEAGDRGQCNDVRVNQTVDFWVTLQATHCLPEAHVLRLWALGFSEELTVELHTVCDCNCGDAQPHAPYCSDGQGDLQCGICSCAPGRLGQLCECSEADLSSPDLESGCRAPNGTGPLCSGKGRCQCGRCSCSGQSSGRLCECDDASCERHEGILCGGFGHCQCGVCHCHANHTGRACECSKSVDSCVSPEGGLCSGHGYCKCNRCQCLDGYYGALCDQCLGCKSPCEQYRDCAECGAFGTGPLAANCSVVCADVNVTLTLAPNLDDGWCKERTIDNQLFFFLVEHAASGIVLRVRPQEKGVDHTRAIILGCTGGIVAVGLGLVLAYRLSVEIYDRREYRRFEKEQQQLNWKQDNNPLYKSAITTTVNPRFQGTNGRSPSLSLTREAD

[3] = target: human α4β7 integrin (human) (UniProt P13612); assay: competitive FACS, 50x excess of non-labelled competitor Ab-Etro
[4] = target: human α4β7 integrin (human) (UniProt P13612); assay: blockade of HuT78 cell adhesion to MAdCAM-1
[5] = target: human α4β7 integrin (human) (UniProt P13612); assay: competitive FACS, 50x excess of non-labelled competitor Ab-Vedo
[6] = target: cynomolgus α4β7 integrin (cynomolgus monkey); assay: blockade of CHOK1-cα4β7 cell adhesion to MAdCAM-1
[7] = target: cynomolgus α4β7 integrin (cynomolgus monkey); assay: FACS, 1 µg/ml, CHOK1-cα4β7 cells
[8] = target: cynomolgus αEβ7 integrin (cynomolgus monkey); assay: FACS, 1 µg/ml, BaF3-cαEβ7 cells
[9] = target: human α4β7 integrin (human) (UniProt P13612); assay: row IC50 (pM) HuT78 of the binning table (assay not explained, presumably adhesion to MAdCAM-1)
[10] = target: human α4β7 integrin (human) (UniProt P13612); assay: competitive FACS, 50x excess of non-labelled competitor Ab-Abri
[11] = target: human α4β1 integrin (human) (UniProt P05556); assay: FACS, 1 µg/ml, CHOK1-hα4β1 cells
[12] = target: human α4β7 integrin (human) (UniProt P13612); assay: FACS, 1 µg/ml, BaF3-hα4β7 cells
[13] = target: human α4β7 integrin (human) (UniProt P13612); assay: competitive FACS, 50x excess of non-labelled competitor Ab-m1
[14] = target: cynomolgus α4β7 integrin (cynomolgus monkey); assay: blockade of CHOK1/cα4β7 adhesion to MAdCAM-1
[15] = target: human α4β7 integrin (human) (UniProt P13612); assay: FACS, primary human CD4+ memory T cells
[16] = target: human α4β7 integrin (human) (UniProt P13612); assay: FACS titration on BaF3-hα4β7
[17] = target: human α4β7 integrin (human) (UniProt P13612); assay: blockade of HuT78 adhesion to coated VCAM-1 hFc, experiment 2
[18] = target: human α4β7 integrin (human) (UniProt P13612); assay: blockade of HuT78 adhesion to coated VCAM-1 hFc, average N = 3
[19] = target: human α4β7 integrin (human) (UniProt P13612); assay: blockade of HuT78 adhesion to coated VCAM-1 hFc, experiment 1
[20] = target: human α4β7 integrin (human) (UniProt P13612); assay: blockade of HuT78 adhesion to coated VCAM-1 hFc, experiment 3

Binder | FACS MFI [1] [MFI] | FACS MFI [2] [MFI] | percentage of binding inhibition [3] [%] | IC50 [4] [nM] | Max inhibition (%) [4] [%] | percentage of binding inhibition [5] [%] | IC50 [6] [nM] | Max inhibition (%) [6] [%] | FACS MFI [7] [MFI] | FACS MFI [8] [MFI] | IC50 [9] [nM] | percentage of binding inhibition [10] [%] | FACS MFI [11] [MFI] | FACS MFI [12] [MFI] | percentage of binding inhibition [13] [%] | IC50 [14] [nM] | EC50 [15] [nM] | EC50 [16] [nM] | Max MFI [16] [MFI] | other results
B1 | 9.81 | 2.87 | 80 | 0.0129 | 103 | 88 | 0.0994 | 95.9 | 89.8 | 68.3 | 0.0129 | 89 | 4.25 | 624 | 73 | 0.0509 | 0.0049 | 0.679 | 775 | –
B2 | 73.2 | 92.2 | 93 | 0.0178 | 104 | 6 | 0.241 | 91.5 | 97.2 | 247 | 0.0178 | 60 | 4.53 | 440 | -1 | 0.0499 | 0.0054 | 0.705 | 951 | –
B3 | – | – | – | – | – | – | – | – | – | – | – | – | – | – | – | – | – | – | – | IC50 [17]: 0.054 nM; IC50 [18]: 0.056 nM; IC50 [19]: 0.038 nM; IC50 [20]: 0.077 nM
